Patent US20260242735A1 (UNIVERSIT T BASEL, published 2026)

B1: Refmab #4 (antibody, V domains shown)
VH: QVQLVQSGAEVKKPGESVKVSCKASGYTFTNYGMNWVKQAPGQGLEWMGWINTYTGEPTYADKFQGRVTMTTDTSTSTAYMEIRNLGGDDTAVYYCARWSWSDGYYVYFDYWGQGTSVTVSS
VL: DIVMTQSPDSLTVSLGERTTINCKSSQSVLDSSTNKNSLAWYQQKPGQPPKLLLSWASTRESGIPDRFSGSGSGTDFTLTIDSPQPEDSATYYCQQSAHFPITFGQGTRLEIK
notes: The alanine scan used IgG or Fab
B2: Refmab #4 (antibody, V domains shown)
VH: B1 VH
VL: B1 VL
notes: Full-length format is human IgG1 Fc silent (PG-LALA); The alanine scan used IgG or Fab
B3: Refmab #1 (antibody, V domains shown)
VH: EVQLVQSGAEVKKPGSSVKVSCKASGYTITDSNIHWVRQAPGQSLEWIGYIYPYNGGTDYNQKFKNRATLTVDNPTNTAYMELSSLRSEDTAFYYCVNGNPWLAYWGQGTLVTVSS
VL: DIQLTQSPSTLSASVGDRVTITCRASESLDNYGIRFLTWFQQKPGKAPKLLMYAASNQGSGVPSRFSGSGSGTEFTLTISSLQPDDFATYYCQQTKEVPWSFGQGTKVEVK
notes: The alanine scan used IgG or Fab; also called hP67.6
B4: Refmab #3 (antibody, V domains shown)
VH: QVQLVQSGAEVKKPGSSVKVSCKASGYTFTDYNMHWVRQAPGQGLEWIGYIYPYNGGTGYNQKFKSKATITADESTNTAYMELSSLRSEDTAVYYCARGRPAMDYWGQGTLVTVSS
VL: DIQMTQSPSSLSASVGDRVTITCRASESVDNYGISFMNWFQQKPGKAPKLLIYAASNQGSGVPSRFSGSGSGTDFTLTISSLQPDDFATYYCQQSKEVPWTFGQGTKVEIK
notes: as for B1
B5: Refmab #3 (antibody, V domains shown)
VH: B4 VH
VL: B4 VL
notes: as for B2
B6: Refmab #2 (antibody, V domains shown)
VH: QVQLVQSGAEVKKPGSSVKVSCKASGGTFSDYAISWVRQAPGQGLEWMGRIIPILGVADYAQKFQGRVTITADKSTRTAYMELSSLRSEDTAVYYCARNWADAFDIWGQGTMVTVSS
VL: DIQLTQSPSSLSASVGDRVTITCRASQGISSVLAWYQQKPGKAPKLLIYDASSLESGVPSRFSGSGSGTDFTLTISSLQPEDFATYYCQQFDSSITFGQGTKLEIK
notes: as for B1

Columns and labels:
human CD33 L103A = human CD33 L103A (human, UniProt P20138 18-364); experiment: flow cytometry on HEK293-T, alanine scan
human CD33 S128A = human CD33 S128A (human, UniProt P20138 18-364); experiment: flow cytometry on HEK293-T, alanine scan
human CD33 H137A = human CD33 H137A (human, UniProt P20138 18-364); experiment: flow cytometry on HEK293-T, alanine scan
human CD33 D140A = human CD33 D140A (human, UniProt P20138 18-364); experiment: flow cytometry on HEK293-T, alanine scan
human CD33 L141A = human CD33 L141A (human, UniProt P20138 18-364); experiment: flow cytometry on HEK293-T, alanine scan
human CD33 I149A = human CD33 I149A (human, UniProt P20138 18-364); experiment: flow cytometry on HEK293-T, alanine scan
human CD33 P155A = human CD33 P155A (human, UniProt P20138 18-364); experiment: flow cytometry on HEK293-T, alanine scan
human CD33 S97A = human CD33 S97A (human, UniProt P20138 18-364); experiment: flow cytometry on HEK293-T, alanine scan
human CD33 L23A = human CD33 L23A (human, UniProt P20138 18-364); experiment: alanine scan, flow cytometry;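 further: HEK293-T cells transiently expressing single-residue alanine mutants of CD33 (alanine swapped to serine), antibody binding read by fluorescence in duplicate, background-subtracted, expressed relative to wild-type CD33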
Experimental: (§1) An alanine scan on human CD33 was performed to the determine the residues on CD33 that are involved in binding to the antibodies investigated. […] Briefly, a mutation library of CD33 was created by high-throughput, site-directed mutagenesis. Each residue was individually mutated to alanine, with alanine codons mutated to serine. The mutant library was arrayed in 384-well microplates and transiently transfected into HEK293-T. Following transfection, cells were incubated with the indicated antibodies (IgG or Fab) at concentrations pre-determined using an independent immunofluorescence titration curve on wild type CD33. […] Binding of each antibody to each mutant clone was determined in duplicates. For each point, background fluorescence was subtracted from the raw data, which were then normalized to antibody reactivity with wild type CD33.
(§2) Critical residues for antibody binding (outlined in dark grey) were residues whose mutations led to a binding of the test Abs of less than 20%. Additional secondary residues (outlined in light grey) were identified that led to a binding of the test Abs of between 20 and 40% as compared to the wild type CD33.

human CD33 Q26A = human CD33 Q26A (human, UniProt P20138 18-364); experiment: alanine scan, flow cytometry;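 further: HEK293-T cells transiently expressing single-residue alanine mutants of CD33 (alanine swapped to serine), antibody binding read by fluorescence in duplicate, background-subtracted, expressed relative to wild-type CD33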
Experimental: as §1, §2

human CD33 E27A = human CD33 E27A (human, UniProt P20138 18-364); experiment: alanine scan, flow cytometry;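 further: HEK293-T cells transiently expressing single-residue alanine mutants of CD33 (alanine swapped to serine), antibody binding read by fluorescence in duplicate, background-subtracted, expressed relative to wild-type CD33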
Experimental: as §1, §2

human CD33 V29A = human CD33 V29A (human, UniProt P20138 18-364); experiment: alanine scan, flow cytometry;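 further: HEK293-T cells transiently expressing single-residue alanine mutants of CD33 (alanine swapped to serine), antibody binding read by fluorescence in duplicate, background-subtracted, expressed relative to wild-type CD33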
Experimental: as §1, §2

human CD33 V31A = human CD33 V31A (human, UniProt P20138 18-364); experiment: alanine scan, flow cytometry
Experimental: as §1, §2

human CD33 Q32A = human CD33 Q32A (human, UniProt P20138 18-364); experiment: alanine scan, flow cytometry
Experimental: as §1, §2

human CD33 E33A = human CD33 E33A (human, UniProt P20138 18-364); experiment: alanine scan, flow cytometry
Experimental: as §1, §2

human CD33 G34A = human CD33 G34A (human, UniProt P20138 18-364); experiment: alanine scan, flow cytometry
Experimental: as §1, §2

human CD33 V39A = human CD33 V39A (human, UniProt P20138 18-364); experiment: alanine scan, flow cytometry
Experimental: as §1, §2

human CD33 P40A = human CD33 P40A (human, UniProt P20138 18-364); experiment: alanine scan, flow cytometry
Experimental: as §1, §2

human CD33 F43A = human CD33 F43A (human, UniProt P20138 18-364); experiment: alanine scan, flow cytometry
Experimental: as §1, §2

human CD33 F44A = human CD33 F44A (human, UniProt P20138 18-364); experiment: alanine scan, flow cytometry
Experimental: as §1, §2

human CD33 P46A = human CD33 P46A (human, UniProt P20138 18-364); experiment: alanine scan, flow cytometry
Experimental: as §1, §2

human CD33 S54A = human CD33 S54A (human, UniProt P20138 18-364); experiment: alanine scan, flow cytometry
Experimental: as §1, §2

human CD33 H57A = human CD33 H57A (human, UniProt P20138 18-364); experiment: alanine scan, flow cytometry
Experimental: as §1, §2

human CD33 G58A = human CD33 G58A (human, UniProt P20138 18-364); experiment: alanine scan, flow cytometry
Experimental: as §1, §2

human CD33 Y59A = human CD33 Y59A (human, UniProt P20138 18-364); experiment: alanine scan, flow cytometry
Experimental: as §1, §2

human CD33 F61A = human CD33 F61A (human, UniProt P20138 18-364); experiment: alanine scan, flow cytometry
Experimental: as §1, §2

human CD33 E63A = human CD33 E63A (human, UniProt P20138 18-364); experiment: alanine scan, flow cytometry
Experimental: as §1, §2

human CD33 I67A = human CD33 I67A (human, UniProt P20138 18-364); experiment: alanine scan, flow cytometry
Experimental: as §1, §2

human CD33 D18A = human CD33 D18A (human, UniProt P20138 19-364); experiment: alanine scan, flow cytometry
Experimental: as §1, §2

human CD33 T75A = human CD33 T75A (human, UniProt P20138 18-364); experiment: alanine scan, flow cytometry
Experimental: as §1, §2

human CD33 N76A = human CD33 N76A (human, UniProt P20138 18-364); experiment: alanine scan, flow cytometry
Experimental: as §1, §2

human CD33 D79A = human CD33 D79A (human, UniProt P20138 18-364); experiment: alanine scan, flow cytometry
Experimental: as §1, §2

human CD33 P19A = human CD33 P19A (human, UniProt P20138 18-364); experiment: alanine scan, flow cytometry
Experimental: as §1, §2

human CD33 Q83A = human CD33 Q83A (human, UniProt P20138 18-364); experiment: alanine scan, flow cytometry
Experimental: as §1, §2

human CD33 E84A = human CD33 E84A (human, UniProt P20138 18-364); experiment: alanine scan, flow cytometry
Experimental: as §1, §2

human CD33 T86A = human CD33 T86A (human, UniProt P20138 18-364); experiment: alanine scan, flow cytometry
Experimental: as §1, §2

human CD33 Q87A = human CD33 Q87A (human, UniProt P20138 18-364); experiment: alanine scan, flow cytometry
Experimental: as §1, §2

human CD33 G88A = human CD33 G88A (human, UniProt P20138 18-364); experiment: alanine scan, flow cytometry
Experimental: as §1, §2

human CD33 R89A = human CD33 R89A (human, UniProt P20138 18-364); experiment: alanine scan, flow cytometry
Experimental: as §1, §2

human CD33 F90A = human CD33 F90A (human, UniProt P20138 18-364); experiment: alanine scan, flow cytometry
Experimental: as §1, §2

Sequence of human CD33 P155A (P20138 18-364 P155A limits assumed): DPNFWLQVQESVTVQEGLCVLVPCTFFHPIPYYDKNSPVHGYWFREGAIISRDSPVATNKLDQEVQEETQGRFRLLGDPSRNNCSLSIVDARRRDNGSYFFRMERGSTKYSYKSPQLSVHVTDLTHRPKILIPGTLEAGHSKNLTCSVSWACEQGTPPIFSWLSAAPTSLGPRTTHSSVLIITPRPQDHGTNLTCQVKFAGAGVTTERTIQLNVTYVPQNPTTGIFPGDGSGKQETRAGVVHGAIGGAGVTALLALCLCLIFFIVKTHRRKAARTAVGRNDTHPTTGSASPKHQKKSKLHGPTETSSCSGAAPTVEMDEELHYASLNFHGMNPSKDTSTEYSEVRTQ
Sequence of human CD33 S128A (P20138 18-364 S128A limits assumed): as the sequence (P20138 18-364 P155A limits assumed) above, with S111A, A138P counted along it
Sequence of human CD33 S97A (P20138 18-364 S97A limits assumed): as the sequence (P20138 18-364 P155A limits assumed) above, with S80A, A138P counted along it
Sequence of human CD33 L103A (P20138 18-364 L103A limits assumed): as the sequence (P20138 18-364 P155A limits assumed) above, with L86A, A138P counted along it
Sequence of human CD33 L141A (P20138 18-364 L141A limits assumed): as the sequence (P20138 18-364 P155A limits assumed) above, with L124A, A138P counted along it
Sequence of human CD33 I149A (P20138 18-364 I149A limits assumed): as the sequence (P20138 18-364 P155A limits assumed) above, with I132A, A138P counted along it
Sequence of human CD33 D140A (P20138 18-364 D140A limits assumed): as the sequence (P20138 18-364 P155A limits assumed) above, with D123A, A138P counted along it
Sequence of human CD33 H137A (P20138 18-364 H137A limits assumed): as the sequence (P20138 18-364 P155A limits assumed) above, with H120A, A138P counted along it
Sequence of human CD33 G88A (P20138 18-364 G88A limits assumed): as the sequence (P20138 18-364 P155A limits assumed) above, with G71A, A138P counted along it
Sequence of human CD33 T86A (P20138 18-364 T86A limits assumed): as the sequence (P20138 18-364 P155A limits assumed) above, with T69A, A138P counted along it
Sequence of human CD33 Y59A (P20138 18-364 Y59A limits assumed): as the sequence (P20138 18-364 P155A limits assumed) above, with Y42A, A138P counted along it
Sequence of human CD33 S54A (P20138 18-364 S54A limits assumed): as the sequence (P20138 18-364 P155A limits assumed) above, with S37A, A138P counted along it
Sequence of human CD33 T75A (P20138 18-364 T75A limits assumed): as the sequence (P20138 18-364 P155A limits assumed) above, with T58A, A138P counted along it
Sequence of human CD33 D79A (P20138 18-364 D79A limits assumed): as the sequence (P20138 18-364 P155A limits assumed) above, with D62A, A138P counted along it

| Binder | Mean % WT Binding (human CD33 L103A) [% WT binding] | Mean % WT Binding (human CD33 S128A) [% WT binding] | Mean % WT Binding (human CD33 H137A) [% WT binding] | Mean % WT Binding (human CD33 D140A) [% WT binding] | Mean % WT Binding (human CD33 L141A) [% WT binding] | Mean % WT Binding (human CD33 I149A) [% WT binding] | Mean % WT Binding (human CD33 P155A) [% WT binding] | Mean % WT Binding (human CD33 S97A) [% WT binding] | Mean % WT Binding (human CD33 L23A) [% WT] | Mean % WT Binding (human CD33 Q26A) [% WT] | Mean % WT Binding (human CD33 E27A) [% WT] | Mean % WT Binding (human CD33 V29A) [% WT] | Mean % WT Binding (human CD33 V31A) [% WT] | Mean % WT Binding (human CD33 Q32A) [% WT] | Mean % WT Binding (human CD33 E33A) [% WT] | Mean % WT Binding (human CD33 G34A) [% WT] | Mean % WT Binding (human CD33 V39A) [% WT] | Mean % WT Binding (human CD33 P40A) [% WT] | Mean % WT Binding (human CD33 F43A) [% WT] | Mean % WT Binding (human CD33 P46A) [% WT] | also measured |
| --- | --- | --- | --- | --- | --- | --- | --- | --- | --- | --- | --- | --- | --- | --- | --- | --- | --- | --- | --- | --- | --- |
| B1 | 85.9 | 184 | 108 | 96.1 | 93.7 | 99.9 | 111 | 121 | – | – | – | – | – | – | – | – | – | – | – | – | – |
| B2 | – | – | – | – | – | – | – | – | 23.7 | 63.1 | 42.9 | 84.4 | 97.9 | 83 | 87.1 | 93.4 | 58.4 | 43 | 7.8 | 135 | Mean % WT Binding (human CD33 F44A): 152 % WT; Mean % WT Binding (human CD33 S54A): 99.9 % WT; Mean % WT Binding (human CD33 H57A): 67.3 % WT; Mean % WT Binding (human CD33 G58A): 62.2 % WT; Mean % WT Binding (human CD33 Y59A): 97.6 % WT; Mean % WT Binding (human CD33 F61A): 131 % WT; Mean % WT Binding (human CD33 E63A): 84.1 % WT; Mean % WT Binding (human CD33 I67A): 67.2 % WT; Mean % WT Binding (human CD33 D18A): 110 % WT; Mean % WT Binding (human CD33 T75A): 93.8 % WT; Mean % WT Binding (human CD33 N76A): 34.7 % WT; Mean % WT Binding (human CD33 D79A): 74.5 % WT; Mean % WT Binding (human CD33 P19A): 20.4 % WT; Mean % WT Binding (human CD33 Q83A): 104 % WT; Mean % WT Binding (human CD33 E84A): 120 % WT; Mean % WT Binding (human CD33 T86A): 103 % WT; Mean % WT Binding (human CD33 Q87A): 94.2 % WT; Mean % WT Binding (human CD33 G88A): 97.7 % WT; Mean % WT Binding (human CD33 R89A): 71.6 % WT; Mean % WT Binding (human CD33 F90A): 82.3 % WT |
| B3 | 96.3 | 118 | 83.8 | 88.7 | 103 | 87.5 | 84.4 | 92.5 | – | – | – | – | – | – | – | – | – | – | – | – | – |
| B4 | 113 | 446 | 100 | 119 | 153 | 101 | 114 | 90.4 | – | – | – | – | – | – | – | – | – | – | – | – | – |
| B5 | – | – | – | – | – | – | – | – | 91.5 | 124 | 153 | 115 | 127 | 133 | 94.9 | 99.4 | 122 | 122 | 49.3 | 8.8 | Mean % WT Binding (human CD33 S54A): 106 % WT; Mean % WT Binding (human CD33 H57A): 182 % WT; Mean % WT Binding (human CD33 G58A): 87.4 % WT; Mean % WT Binding (human CD33 Y59A): 145 % WT; Mean % WT Binding (human CD33 F61A): 304 % WT; Mean % WT Binding (human CD33 E63A): 124 % WT; Mean % WT Binding (human CD33 I67A): 142 % WT; Mean % WT Binding (human CD33 D18A): 37.8 % WT; Mean % WT Binding (human CD33 T75A): 118 % WT; Mean % WT Binding (human CD33 N76A): 148 % WT; Mean % WT Binding (human CD33 D79A): 105 % WT; Mean % WT Binding (human CD33 P19A): 75.2 % WT; Mean % WT Binding (human CD33 Q83A): 103 % WT; Mean % WT Binding (human CD33 E84A): 137 % WT; Mean % WT Binding (human CD33 T86A): 112 % WT; Mean % WT Binding (human CD33 Q87A): 161 % WT; Mean % WT Binding (human CD33 G88A): 88.3 % WT; Mean % WT Binding (human CD33 R89A): 126 % WT; Mean % WT Binding (human CD33 F90A): 138 % WT |
| B6 | 110 | 140 | 120 | 109 | 113 | 116 | 126 | 132 | – | – | – | – | – | – | – | – | – | – | – | – | – |
